How the values were obtained:
MS2 coat protein [1] = assay: apparent KD of MS2 coat protein; designed switch direction (-1 OFF switch, 1 ON switch): -1; higher = weaker reporter binding; conditions: Eterna round: R98
Protocol: (§1)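 RNA-MaP: designed FMN/MS2 RNA switches (84 nt design region) are transcribed on-chip within common flanks and titrated with SNAP-549-labelled MS2 coat protein (about 1-3000 nM) in 100 mM Tris pH 7.5, 80 mM KCl, 4 mM MgCl2, without or with 200 uM FMN. Median apparent KD per design; activation ratio = KD,OFF / KD,ON.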

MS2 coat protein [2] = assay: apparent KD of MS2 coat protein; higher = weaker reporter binding; conditions: Eterna round: R101
Protocol: as §1

Row | Sequence | apparent KD of MS2 coat protein (MS2 coat protein [1]; input ligand: FMN 200 uM) [nM] | apparent KD of MS2 coat protein (MS2 coat protein [1]; input ligand: none) [nM] | apparent KD of MS2 coat protein (MS2 coat protein [2]; input ligand: FMN 200 uM) [nM] | apparent KD of MS2 coat protein (MS2 coat protein [2]; input ligand: none) [nM]
1 | AAAAGAACCCGAGGAUAUGCGAAAUCACGAAGAGCAGAAGGCGGCUACAUGUGGAUCCGAGGACAUGAGGAUCACCCAUGUACG [Iszaaatce] | 165 | 321 | – | –
2 | AAUAAUUCUCAAGGAUAUGACUCCGAAACGGAGUCAGAAGGUGAGGAUCACCCACCUAGCUCAGCGUCGAAAGACGCUGAGCAA [#SharedSequence ExNG1 - 35] (puzzle (switch architecture): Exclusion NG 1) | – | – | 314 | 18.4
3 | AAUAUAAAGAGCUGGCUUCUAAUAACAUGAGGAUCACCCAUGUAGGAUAUCAGCACGAUAAGUGCUGAGAAGGACAUCCAGCUC [Denovo 53] | 14.3 | 14.4 | – | –
4 | ACACGUCGUGAGAAGGAGGAUCACCCUUUCGAAAGAAAUAGCCACCGUGAAAACGGUGGCAGAUUUUAGGAUAUCACGACGUGA [#SharedSequence - IExNG2: 9] (puzzle (switch architecture): Inverted Exclusion NG 2) | – | – | 113 | 88.3
5 | AGAGCUGCUCAGAAGGAGGAUCACCCUUUCGAAAGAAAUACGGAGGCUGAAAAGCCUCCGAAAUCCUAGGAUAUGAGCAGCUCA [#SharedSequence - IExNG2: 3] (puzzle (switch architecture): Inverted Exclusion NG 2) | – | – | 7.43 | 791
6 | AGGAGAAAUGUAGGAUAUAUAUAUAUAUAUGGGCAAAGCGCAUAUAUAUAUAUAGAAGGACAUGAGGAUCACCCAUGUUUCCCU [#Lowering the energy 11] (puzzle (switch architecture): Small Loop Exclusion NG 1) | – | – | 10.9 | 10.8
7 | AUGCCGUGCAGAGCGCAACGGCGUACAUGAGGAUCACCCAUGUAGGAUAUACUACACAAAGUGUAGUAGAAGGACAUGCGACUG [Ex NG2 #93] | 185 | 56.7 | – | –
8 | CCUGCACCUCAAGGAUAUCCAGUCGAAACGACUGGAGAAGGUGAGGAUCACCCAUCUAGCCUGACGAAAGUCAGGCAUGCAGGA [#SharedSequence - ExNG1-5] (puzzle (switch architecture): Exclusion NG 1) | – | – | 848 | –
9 | CCUGCACUUCAAGGAUAUCCAGUCGAAACGACUGGAGAAGGUGAGGAUCACCCACCUAGCCUGACGAAAGUCAGGCAUGCAGGA [#SharedSequence - ExNG1-3] (puzzle (switch architecture): Exclusion NG 1) | – | – | 8.06 | 8.62
10 | CGCUAUGACAUGAGGAUCACCCAUGUAUACAUGGGAAUGACGUAGGAUAUGCAGAAGAUUAAAGUGCAGAAGGACGGCUUUGCG [JR #DistanceClose #Static #NP SSNG3 Sub063] (puzzle (switch architecture): Same State NG 3) | – | – | 214 | 433
11 | CUAUAGAUAUGAGGAUAUGUAUAUCCAACAUGAGGAUCACCCAUGUUGAGGAUCACCCAUGUAAAGCAGAAGGCAUAUCUAUAG [#HighScoreProbStacks] (puzzle (switch architecture): Same State NG 2) | – | – | 16.6 | 21.5
12 | CUGUGACGGAUCCAGAAUUACAACAUGAGGAUCACCCAUGUGCAGGAUAUCGGGUUGAUAGGCGCCGAGAAGGGUAUGAUCACG [Ex NG2 #37] | 77.3 | 80 | – | –
13 | GAACUCACGGCAUGCAUAUAAGCACAUGAGGAUCACCCAUGUCAGGAUAUCCACGGUCGUGCUUCGGAGAAGGGACAUGAGGCG [Lainxe] | 48 | 51.7 | – | –
14 | GCCAUCGCAUGAGGAUAUGCUCCCGUUUCGGGAGCAGAAGGCAUGUCAUAAGACAUGAGGAUCACCCAUGUAGUUAAGAUGGCA (puzzle (switch architecture): Same State NG 1) | – | – | 11.7 | 285
15 | GGACGUCACAUUAACAUGAGGAUCACCCAUGUCAAAAGACAUGAGGAUAUGGAUCCUAAUUGGAUCCAGAAGGCAUGGACGUCC [#HiddenHairpinInALoop - Fiskers NG3ss - 39] (puzzle (switch architecture): Same State NG 3) | – | – | 14.8 | 236
16 | GGUACUCAAAGAGUACCAAUACGAACAUGAGGAUCACCCAUGUAGGAUAUGCUACUCAAAGAGUAGCAGAAGGACAUGUGUAAA [OmeiMod 10 - Jieux - Exclusion NG 3] | 567 | 92.4 | – | –
17 | GUGGUUGUCGUAGGAUAUGUAGGAUAUUCCUACAUGAGGAUCACCCAUGUUCGCAUGGAAGAAGGACAGAAGGACGAUGACCAG [salish99_SSNG2_011 #endbits investigation] (puzzle (switch architecture): Same State NG 2) | – | – | 9.85 | 855
18 | UAAGUCGGAAGAUAAUAAUGAAUACAUGAGGAUCACCCAUGUAAGGAUAUGCAGUGGAAUACACUGCAGAAGGUACAAACCGAC [Exclusion NG 3/17-A2] | 24.6 | 15.2 | – | –
19 | UCAUACAUGAGGAUCACCCAUGACAUGAGGAUCACCCAUGUGCAGGAUAUACGUGAUAUAAUAUAGUAGAAGGGCAGACUAUAA [LRO006_Exclusion NG 3] | 53 | 39.8 | – | –
20 | UCUUAAAUGAUCCUAUUUACCAACAUGAGGAUCACCCAUGUGCAGGAUAUGCUAAAGAUAAAUAAGCAGAAGGGCAAUAACCGC [JR_ExcNG3_Sub007] | 608 | 127 | – | –
21 | UGUAUUAAUGGAGGAUAUCAAUAUCAAACAUGAGGAUCACCCAUGUUGAGGAUCACCCAUGUCCAUGAGAAGGCUGGCGUACGU [My 19th design] (puzzle (switch architecture): Same State NG 2) | – | – | 10.9 | 9.37
